Test results from patent US20230218875A1, “PARTICLE-ATTACHED MICRONEEDLE AND METHOD OF MANUFACTURING THE SAME” (QuadMedicine, Inc., priority 2022, published 2023).

Assay: Adhesion force of ovalbumin particles to PDMS 40 by centrifugation
Assay type: physicochemical
Description: Ovalbumin particles with an average diameter of 10 μm were attached to a plate with a diameter of 0.5 cm containing a PDMS 40 adhesive layer. Next, the plate was placed in a centrifuge tube. After centrifuging the tube at 27,000 g (Centrifuge, 1730R, LABOGENE, South Korea) for 10 min, the plate was weighed using a high-precision balance (Satorius SE2-F, Gottingen, Germany), and the amount of ovalbumin particles separated from the surface of PDMS 40 during centrifugation was calculated.

B1: ovalbumin particles: Ovalbumin particles with an average diameter of 10 μm attached to a plate containing a PDMS 40 adhesive layer (protein, UniProt P01012 2-386, looked up)
Ovalbumin: GSIGAASMEFCFDVFKELKVHHANENIFYCPIAIMSALAMVYLGAKDSTRTQINKVVRFDKLPGFGDSIEAQCGTSVNVHSSLRDILNQITKPNDVYSFSLASRLYAEERYPILPEYLQCVKELYRGGLEPINFQTAADQARELINSWVESQTNGIIRNVLQPSSVDSQTAMVLVNAIVFKGLWEKAFKDEDTQAMPFRVTEQESKPVQMMYQIGLFRVASMASEKMKILELPFASGTMSMLVLLPDEVSGLEQLESIINFEKLTEWTSSNVMEERKIKVYLPRMKMEEKYNLTSVLMAMGITDVFSSSANLSGISSAESLKISQAVHAAHAEINEAGREVVGSAEAGVDAASVSEEFRADHPFLFCIKHIATNAVLFFGRCVSP
modifications: particles
notes: Ovalbumin particles with an average diameter of 10 μm attached to a plate containing a PDMS 40 adhesive layer
Question: With B1 as the molecule, how does the “Initial ovalbumin particles remaining on the surface of PDMS 40” value (27,000 g for 10 min, pressure 0.2 N/cm^2, average diameter 10 μm) read?
Answer: 96%

Question: And the “Vertical adhesion force between ovalbumin particles and PDMS 40” value (from centrifugation at 27,000 g)?
Answer: more than 0.2 N/cm^2
